{"source": "patent US20160185837A1", "about": "(AstraZeneca / MedImmune, published 2016)", "binders": {"B1": {"name": "IP088 (Fc fusion)", "chain": "YSEGTFTSDYSKLLEEEAVRLFIEWLVKGPAAAGGSGSTASSGSGSATGGGGAATHTCPPCPAPEF"}}, "assay_in_all_cases": "cell-based or functional assay", "key": {"[1]": {"target": "T1, human GLP-1 receptor (human, UniProt P43220 24-463)"}, "[2]": {"target": "human glucagon receptor (human, UniProt P47871 26-477)"}, "[3]": {"target": "T2, human GIP receptor (human, UniProt P48546 22-466)", "T2 sequence (looked up)": "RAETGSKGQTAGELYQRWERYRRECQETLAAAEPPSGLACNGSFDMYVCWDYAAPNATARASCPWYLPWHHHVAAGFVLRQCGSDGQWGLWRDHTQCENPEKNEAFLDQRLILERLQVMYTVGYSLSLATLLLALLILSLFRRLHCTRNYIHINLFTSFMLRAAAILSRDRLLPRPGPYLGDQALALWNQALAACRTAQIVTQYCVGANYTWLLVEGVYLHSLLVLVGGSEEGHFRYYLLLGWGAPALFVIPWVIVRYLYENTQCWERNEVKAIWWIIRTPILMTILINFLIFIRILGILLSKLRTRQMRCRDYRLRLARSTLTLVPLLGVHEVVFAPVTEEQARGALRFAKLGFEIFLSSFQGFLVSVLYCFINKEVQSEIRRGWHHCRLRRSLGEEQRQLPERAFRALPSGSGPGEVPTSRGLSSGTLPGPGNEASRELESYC"}, "[4]": {"target": "T3, mouse GLP-1 receptor (mouse, UniProt O35659 22-463)", "T3 sequence (looked up)": "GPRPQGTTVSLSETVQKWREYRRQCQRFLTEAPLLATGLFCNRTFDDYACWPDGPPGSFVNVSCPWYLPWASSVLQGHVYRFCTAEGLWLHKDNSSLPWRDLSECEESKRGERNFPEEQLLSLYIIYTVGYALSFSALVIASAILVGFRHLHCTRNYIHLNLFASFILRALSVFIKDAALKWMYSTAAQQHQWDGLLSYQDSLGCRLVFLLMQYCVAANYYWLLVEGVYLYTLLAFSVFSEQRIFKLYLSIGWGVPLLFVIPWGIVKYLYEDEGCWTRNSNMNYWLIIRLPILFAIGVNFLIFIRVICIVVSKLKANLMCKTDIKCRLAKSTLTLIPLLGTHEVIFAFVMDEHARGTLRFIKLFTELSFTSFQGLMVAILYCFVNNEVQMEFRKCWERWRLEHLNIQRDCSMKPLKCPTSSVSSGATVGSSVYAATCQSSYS"}, "[5]": {"target": "T4, mouse GIP receptor (mouse, UniProt Q0P543 19-460)", "T4 sequence (looked up)": "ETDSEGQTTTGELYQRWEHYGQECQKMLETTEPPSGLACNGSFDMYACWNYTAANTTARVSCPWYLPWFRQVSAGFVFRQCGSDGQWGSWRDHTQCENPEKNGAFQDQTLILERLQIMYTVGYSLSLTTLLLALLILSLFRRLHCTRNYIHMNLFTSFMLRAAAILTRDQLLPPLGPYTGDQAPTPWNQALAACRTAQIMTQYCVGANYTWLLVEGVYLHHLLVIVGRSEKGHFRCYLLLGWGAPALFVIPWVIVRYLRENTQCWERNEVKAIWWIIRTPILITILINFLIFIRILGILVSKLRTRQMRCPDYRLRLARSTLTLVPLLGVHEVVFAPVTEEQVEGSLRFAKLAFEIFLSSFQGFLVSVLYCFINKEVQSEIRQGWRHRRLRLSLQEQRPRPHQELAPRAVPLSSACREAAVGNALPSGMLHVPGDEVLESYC"}, "[6]": {"target": "T5, rat GLP-1 receptor (rat, UniProt P32301 22-463)", "T5 sequence (looked up)": "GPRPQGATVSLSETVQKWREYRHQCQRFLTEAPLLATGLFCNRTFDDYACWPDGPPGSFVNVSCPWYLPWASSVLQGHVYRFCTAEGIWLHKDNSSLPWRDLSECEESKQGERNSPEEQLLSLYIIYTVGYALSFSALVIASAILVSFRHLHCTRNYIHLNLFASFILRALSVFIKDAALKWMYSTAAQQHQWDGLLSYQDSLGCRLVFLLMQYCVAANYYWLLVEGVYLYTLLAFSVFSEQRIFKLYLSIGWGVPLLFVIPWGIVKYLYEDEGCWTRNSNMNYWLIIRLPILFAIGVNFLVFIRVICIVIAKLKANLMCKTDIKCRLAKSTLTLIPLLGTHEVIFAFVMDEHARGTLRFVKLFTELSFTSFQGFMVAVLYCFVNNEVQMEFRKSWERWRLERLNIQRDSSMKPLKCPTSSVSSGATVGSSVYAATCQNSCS"}, "[7]": {"target": "T6, rat GIP receptor (rat, UniProt P43219 19-455)", "T6 sequence (looked up)": "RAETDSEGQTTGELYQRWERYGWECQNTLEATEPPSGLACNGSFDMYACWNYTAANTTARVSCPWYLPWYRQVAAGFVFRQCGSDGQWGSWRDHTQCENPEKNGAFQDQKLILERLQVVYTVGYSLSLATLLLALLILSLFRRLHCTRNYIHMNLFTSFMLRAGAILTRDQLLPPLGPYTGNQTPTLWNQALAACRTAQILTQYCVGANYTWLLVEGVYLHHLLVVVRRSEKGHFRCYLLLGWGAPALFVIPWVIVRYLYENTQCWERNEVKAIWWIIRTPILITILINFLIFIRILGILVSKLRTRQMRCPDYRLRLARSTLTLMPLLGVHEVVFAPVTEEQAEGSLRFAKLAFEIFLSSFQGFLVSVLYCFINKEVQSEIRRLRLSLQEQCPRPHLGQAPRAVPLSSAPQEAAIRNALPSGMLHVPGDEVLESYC"}, "[8]": {"target": "T1, human GLP-1 receptor", "remark": "listed apart in the source"}, "[9]": {"target": "T2, human GIP receptor", "remark": "listed apart in the source"}, "[10]": {"target": "T3, mouse GLP-1 receptor", "remark": "listed apart in the source"}, "[11]": {"target": "T4, mouse GIP receptor", "remark": "listed apart in the source"}, "[12]": {"target": "T5, rat GLP-1 receptor", "remark": "listed apart in the source"}, "[13]": {"target": "cynomolgus monkey GLP-1 receptor (cynomolgus monkey, UniProt F8V479 24-463)"}, "[14]": {"target": "cynomolgus monkey glucagon receptor (cynomolgus monkey)"}}, "note": "Read-outs that look alike come from different tables or passages of the source."}
{"binder": "B1", "values": [{"measurement": "cAMP EC50", "setting": "[1]", "result": 0.076, "unit": "nM"}, {"measurement": "cAMP EC50", "setting": "[2]", "result": 460, "unit": "nM"}, {"measurement": "cAMP EC50", "setting": "[3]", "result": 0.0078, "unit": "nM"}, {"measurement": "cAMP EC50", "setting": "[4]", "result": 0.31, "unit": "nM"}, {"measurement": "cAMP EC50", "setting": "[5]", "result": 86, "unit": "nM"}, {"measurement": "cAMP EC50", "setting": "[6]", "result": 0.033, "unit": "nM"}, {"measurement": "cAMP EC50", "setting": "[7]", "result": 0.1, "unit": "nM"}, {"measurement": "cAMP EC50", "setting": "[8]", "result": 0.222, "unit": "nM"}, {"measurement": "cAMP EC50", "setting": "[9]", "result": 0.016, "unit": "nM"}, {"measurement": "cAMP EC50", "setting": "[10]", "result": 0.42, "unit": "nM"}, {"measurement": "cAMP EC50", "setting": "[11]", "result": 137, "unit": "nM"}, {"measurement": "cAMP EC50", "setting": "[12]", "result": 0.038, "unit": "nM"}, {"measurement": "cAMP EC50, 4.2% cyno serum albumin", "setting": "[13]", "result": 0.19, "unit": "nM"}, {"measurement": "cAMP EC50, 4.2% cyno serum albumin", "setting": "[14]", "result": "> 1000", "unit": "nM"}]}
